# Laboratory results: patent publication US20110065647A1 (BIOSEARCH 2007, published 2011)
# Ends that are not written are not given here.
# B1: Peptide A (peptide)
# peptide: DDCLGMFSSCDPDNDKCCEGRKCNRKDKWCKYVL-NH2
# modifications: disulfide (positions not given here); not fully specified (bridges); also: three disulphide bridges, probably C1-C4, C2-C5, C3-C6
# B2: Peptide B (peptide)
# peptide: YCQEFLWTCDEERKCCGDMVCRLWCKKRL-NH2
# modifications: disulfide (positions not given here); not fully specified (bridges); also: three disulphide bridges, probably C1-C4, C2-C5, C3-C6
# B3: Peptide C (peptide)
# peptide: ACLGFGEKCNPSNDKCCKSSSLVCSQKHKWCKYGW
# modifications: disulfide (positions not given here); not fully specified (bridges); also: three disulphide bridges, probably C1-C4, C2-C5, C3-C6
# B4: Peptide F (peptide)
# peptide: DCLGWFKGCDPDNDKCCEGYKCNRRDKWCKYKLW
# modifications: disulfide (positions not given here); not fully specified (bridges); also: three disulphide bridges, probably C1-C4, C2-C5, C3-C6
# Biological target: rNaV1.3 channels (rat, UniProt P08104 1-1951)
# Sequence (P08104 whole entry): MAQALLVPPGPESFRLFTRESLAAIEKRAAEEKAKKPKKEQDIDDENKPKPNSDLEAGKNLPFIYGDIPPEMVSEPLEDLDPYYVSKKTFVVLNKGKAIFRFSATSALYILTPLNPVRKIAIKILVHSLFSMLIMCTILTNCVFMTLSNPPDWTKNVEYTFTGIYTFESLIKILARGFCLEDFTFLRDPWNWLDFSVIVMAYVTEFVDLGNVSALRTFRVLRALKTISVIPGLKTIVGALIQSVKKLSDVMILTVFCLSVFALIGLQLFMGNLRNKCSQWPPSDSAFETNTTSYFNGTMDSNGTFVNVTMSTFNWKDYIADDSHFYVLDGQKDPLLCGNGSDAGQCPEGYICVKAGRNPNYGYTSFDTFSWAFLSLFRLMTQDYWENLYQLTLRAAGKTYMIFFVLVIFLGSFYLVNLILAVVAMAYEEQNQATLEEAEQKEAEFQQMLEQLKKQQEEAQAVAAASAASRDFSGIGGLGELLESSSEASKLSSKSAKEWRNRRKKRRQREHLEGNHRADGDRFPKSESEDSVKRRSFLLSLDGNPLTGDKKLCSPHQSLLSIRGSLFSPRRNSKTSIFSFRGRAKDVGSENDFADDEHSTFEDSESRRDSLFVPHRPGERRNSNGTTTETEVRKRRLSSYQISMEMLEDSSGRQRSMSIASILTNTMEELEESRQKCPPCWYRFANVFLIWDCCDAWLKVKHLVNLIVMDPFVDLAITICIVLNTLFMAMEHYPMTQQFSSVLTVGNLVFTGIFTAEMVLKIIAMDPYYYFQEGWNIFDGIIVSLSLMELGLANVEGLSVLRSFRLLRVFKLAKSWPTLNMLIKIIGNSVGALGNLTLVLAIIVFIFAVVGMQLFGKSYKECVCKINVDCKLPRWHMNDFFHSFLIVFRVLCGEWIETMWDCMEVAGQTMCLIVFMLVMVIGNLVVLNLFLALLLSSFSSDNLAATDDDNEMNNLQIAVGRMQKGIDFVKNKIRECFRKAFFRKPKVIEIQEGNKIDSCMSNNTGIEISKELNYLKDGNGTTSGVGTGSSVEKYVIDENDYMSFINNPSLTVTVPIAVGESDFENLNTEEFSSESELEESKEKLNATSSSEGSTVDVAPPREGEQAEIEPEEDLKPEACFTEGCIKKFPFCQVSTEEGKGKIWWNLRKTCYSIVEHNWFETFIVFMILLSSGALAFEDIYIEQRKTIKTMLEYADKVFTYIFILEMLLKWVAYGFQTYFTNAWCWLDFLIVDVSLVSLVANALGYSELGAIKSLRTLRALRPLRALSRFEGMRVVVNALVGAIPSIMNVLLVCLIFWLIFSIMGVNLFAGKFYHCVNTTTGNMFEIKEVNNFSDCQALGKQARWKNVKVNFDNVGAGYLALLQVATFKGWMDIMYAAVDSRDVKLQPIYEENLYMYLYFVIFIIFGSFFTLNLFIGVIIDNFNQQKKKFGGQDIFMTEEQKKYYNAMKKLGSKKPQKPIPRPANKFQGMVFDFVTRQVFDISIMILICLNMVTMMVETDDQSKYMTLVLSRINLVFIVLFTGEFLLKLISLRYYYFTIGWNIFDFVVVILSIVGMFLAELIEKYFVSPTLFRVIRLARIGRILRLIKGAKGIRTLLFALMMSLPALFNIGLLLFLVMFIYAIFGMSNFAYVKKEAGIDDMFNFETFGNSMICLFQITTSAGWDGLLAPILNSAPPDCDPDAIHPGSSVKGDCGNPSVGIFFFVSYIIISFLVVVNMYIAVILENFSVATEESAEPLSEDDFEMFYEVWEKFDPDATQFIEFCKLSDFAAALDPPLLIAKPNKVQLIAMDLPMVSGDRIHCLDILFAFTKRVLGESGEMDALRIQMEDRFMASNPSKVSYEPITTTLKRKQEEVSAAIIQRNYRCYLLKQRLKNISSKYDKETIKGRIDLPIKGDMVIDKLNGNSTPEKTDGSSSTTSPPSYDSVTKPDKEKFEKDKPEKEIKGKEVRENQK
# Experiment: cell-based or functional assay
row,Binder,"IC50 Nav1.3 (µM); inhibition of channel current, patch clamp [µM]"
1,B1,1.75
2,B2,0.23
3,B3,1.2
4,B4,0.13

# Biological target: rNaV1.8 channels (rat, UniProt Q62968 1-1956)
# Sequence (Q62968 whole entry): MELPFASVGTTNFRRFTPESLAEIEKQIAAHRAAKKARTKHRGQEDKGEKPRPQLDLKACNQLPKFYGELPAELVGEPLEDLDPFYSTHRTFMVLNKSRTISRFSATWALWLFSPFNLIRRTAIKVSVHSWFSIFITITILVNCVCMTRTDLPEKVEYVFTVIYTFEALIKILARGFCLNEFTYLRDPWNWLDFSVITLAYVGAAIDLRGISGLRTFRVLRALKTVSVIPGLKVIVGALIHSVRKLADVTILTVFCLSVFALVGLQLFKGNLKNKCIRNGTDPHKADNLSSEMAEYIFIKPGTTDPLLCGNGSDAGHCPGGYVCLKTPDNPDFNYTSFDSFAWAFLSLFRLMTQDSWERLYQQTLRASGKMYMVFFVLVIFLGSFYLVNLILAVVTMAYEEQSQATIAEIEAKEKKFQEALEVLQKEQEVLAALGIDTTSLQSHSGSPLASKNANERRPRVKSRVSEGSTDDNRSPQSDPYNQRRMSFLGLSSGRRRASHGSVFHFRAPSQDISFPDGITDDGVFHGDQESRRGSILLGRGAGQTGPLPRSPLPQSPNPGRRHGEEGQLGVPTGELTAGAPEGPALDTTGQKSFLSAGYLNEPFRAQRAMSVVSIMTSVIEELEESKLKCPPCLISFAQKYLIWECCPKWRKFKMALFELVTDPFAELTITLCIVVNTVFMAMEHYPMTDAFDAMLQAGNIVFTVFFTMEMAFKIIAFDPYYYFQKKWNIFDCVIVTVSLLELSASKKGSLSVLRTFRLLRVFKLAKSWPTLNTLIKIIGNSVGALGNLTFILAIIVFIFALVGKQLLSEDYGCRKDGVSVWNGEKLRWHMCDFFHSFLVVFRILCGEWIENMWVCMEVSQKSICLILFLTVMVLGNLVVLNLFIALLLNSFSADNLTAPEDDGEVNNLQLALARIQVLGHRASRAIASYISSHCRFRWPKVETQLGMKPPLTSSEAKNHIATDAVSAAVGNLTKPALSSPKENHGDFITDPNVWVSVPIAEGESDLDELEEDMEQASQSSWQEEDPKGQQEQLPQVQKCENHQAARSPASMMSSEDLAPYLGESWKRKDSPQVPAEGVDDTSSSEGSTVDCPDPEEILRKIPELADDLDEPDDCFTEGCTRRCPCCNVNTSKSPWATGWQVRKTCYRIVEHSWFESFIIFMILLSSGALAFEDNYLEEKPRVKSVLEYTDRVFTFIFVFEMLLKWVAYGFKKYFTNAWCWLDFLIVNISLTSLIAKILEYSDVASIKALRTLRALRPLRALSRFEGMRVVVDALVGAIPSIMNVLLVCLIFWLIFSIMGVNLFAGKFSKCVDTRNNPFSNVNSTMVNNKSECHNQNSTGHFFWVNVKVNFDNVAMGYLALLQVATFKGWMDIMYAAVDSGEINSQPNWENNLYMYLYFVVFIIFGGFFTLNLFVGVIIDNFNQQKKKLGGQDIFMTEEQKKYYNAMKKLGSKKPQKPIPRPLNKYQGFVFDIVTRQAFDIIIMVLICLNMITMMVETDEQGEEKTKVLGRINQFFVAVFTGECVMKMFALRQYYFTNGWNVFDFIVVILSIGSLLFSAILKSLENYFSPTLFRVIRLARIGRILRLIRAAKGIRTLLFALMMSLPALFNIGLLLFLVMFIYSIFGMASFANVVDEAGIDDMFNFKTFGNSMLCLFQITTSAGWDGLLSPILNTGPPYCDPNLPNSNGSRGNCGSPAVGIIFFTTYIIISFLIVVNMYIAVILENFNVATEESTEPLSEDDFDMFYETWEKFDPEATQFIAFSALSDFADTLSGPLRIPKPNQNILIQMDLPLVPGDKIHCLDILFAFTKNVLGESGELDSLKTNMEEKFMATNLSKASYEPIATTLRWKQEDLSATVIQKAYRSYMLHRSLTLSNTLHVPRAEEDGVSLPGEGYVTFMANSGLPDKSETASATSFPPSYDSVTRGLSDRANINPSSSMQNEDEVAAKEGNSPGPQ
# Experiment: cell-based or functional assay
row,Binder,"IC50 Nav1.8 (µM); inhibition of channel current, patch clamp [µM]"
1,B1,2.5
2,B4,0.17
